How the values were obtained:
[1] = physchem; format: physicochemical; details: pH 7.4
Experimental: Lipophilicity of the HPLC-purified radiopeptide analogs was determined through octanol/water partition coefficients, determined at pH 7.4 by measuring the distribution of the HPLC purified radiolabeled peptides in 1-octanol and PBS. Then, 50 μL HPLC purified ^99mTc-BN1/^99mTc-BN2/^99mTc-BN3/^99mTc-BN4/^99mTc-BNS with 100 μCi of radiolabeled compound in PBS was added to a to a centrifuge tube containing 1 mL n-octanol and 1 mL PBS (0.025 M, pH 7.4). The tube was vortexed at room temperature for 2 min and they are centrifuged at 5000 rpm for 5 min to ensure complete separation of layers. Further, 100 μL of each phase was transferred into a separate pre-weighed vial and measured in the well γ-counter. The ratio of octanol layer counts to aqueous layer counts was expressed as the distribution coefficient (D, the appropriate descriptor for ionizable compounds) and logD was used for determination of lipophilicity. Counts per unit weight of the sample were calculated, and logD value as calculated as follows:
log10D = log10 [(cpm in octanol – cpm in background) / (cpm in buffer – cpm in background)]

[2] = in vitro; format: in vitro ADME; details: rat
Experimental: An aliquot (100 μL) of ^99mTc-BN1/^99mTc-BN2/^99mTc-BN3/^99mTc-BN4/^99mTc-BNS was added to 1 mL of freshly collected rat serum in centrifuge tube. The mixture was then incubated at 37 °C for 1 h; the serum protein was precipitated by adding 1 mL trichloroacetic acid (10%, V/V). The supernatant and precipitate were separated by centrifugation at 3000 rpm for 5 min. Radioactivities of both the phases were measured separately. The above experimental procedure was repeated three times. The percentage of protein binding was determined as: Plasma protein binding % = (precipitate counts (CPM) / [precipitate counts (CPM) + plasma counts (CPM)]) × 100%.

[3] = test system: MDA-MB-231 tumor-bearing mice; assay: In vivo biodistribution; parameters: species or system mouse; details: for Tumor uptake: MDA-MB-231 tumor; for Tumor uptake / Blood uptake / Heart uptake / Intestine uptake / Kidney uptake / Liver uptake / Lung uptake / Muscle uptake / Pancreas uptake / Spleen uptake / Stomach uptake / Urine + urinary bladder uptake: mean ± SD, n = 3
Experimental: All animal experiments were done according to the CSIR-IICB Animal Ethics Committee’s rules and regulation. Forty-eight hours before tumor cell implantation, an immunosuppressive drug (cyclosporine-A) was given intraperitoneal (i.p) at a concentration of 30 mg/kg/day. After that, MDA-MB-231 cells (5 × 10^6) 0.2 mL were implanted subcutaneously into the left flanks of the hind leg of BALB/c mice. Thereafter, the same dose of cyclosporine was given i.p. daily up to 2 weeks. Two weeks after inoculation of the tumor cells, when tumors reached ~ 0.5 cm in mean diameter, the tumor-bearing mice were used for biodistribution and imaging studies. Animals were monitored daily and their weights were recorded. Control group of mice received only 0.9 wt% saline. After cell implantation, the growth rate of the breast tumor followed a satisfactory pattern of spheroid shape and tumors are palpable within 2 to 4 weeks. MDA-MB-231 cell implanted mice tumor models were used for biodistribution and planar imaging studies of these radiolabeled new bombesin analogs.
In tissue biodistribution studies, tumor-bearing animals were divided into four groups and well hydrated for 1 h by intraperitoneal administration of saline (0.9%, 2 mL). Three animals per groups were used for biodistribution studies. After that, the radiolabeled new bombesin analogs (^99mTc-BN) were injected intravenously in each animal of each group consequently through the tail vein [24–27]. After 5, 30, 60, and 120 min intravenous administrations of radiolabeled analogs, the animals were sacrificed; blood, heart, lung, liver, kidney, stomach, intestine, spleen, pancreas, brain, muscle, and tumor were excised, weighed, and counted for radioactivity. The organ uptake was calculated as a percentage of the injected activity per gram of wet tissue (%IA/g). In order to evaluate whether binding of bombesin analogs to MDA-MB-231 cells in vivo is specific; blocking studies with ^99mTc-labeled bombesin analogs in tumor-bearing mice were carried out. Groups of three animals were injected 0.03 nmol of ^99mTc-labeled BN analogs (2 MBq) with 25 nmol of non-radiolabeled BN peptide. After 60 min and 120 min, mice were sacrificed and the organs were collected. Each organ was weighed and counted in a gamma counter along with activity standard and percentage of injected activity per gram (%IA/g) of tissue was calculated for each type of tissues. Counts were corrected for background radiation and physical decay of the radioactivity. The uptake was expressed in the percentage of injected activity per gram of each organ (%IA/g). Data were analyzed statistically by the t test, with the level of significance set at P < 0.05.

[4] = 60 min p.i., blocked with excess non-radiolabeled BN peptide

## ^99mTc-BN(7-14)NH2 [99mTc-BNS, reference compound]
[1]
  logD: − 0.42 ± 0.10
[2]
  Percentage of plasma protein binding: 54%
[3]; 5 min p.i., i.v.
  Tumor uptake: 0.45 ± 0.12 %IA/g
  Blood uptake: 1.25 ± 0.05 %IA/g
  Heart uptake: 1.80 ± 0.02 %IA/g
  Intestine uptake: 0.84 ± 0.03 %IA/g
  Kidney uptake: 2.86 ± 0.10 %IA/g
  Liver uptake: 1.60 ± 0.07 %IA/g
  Lung uptake: 1.35 ± 0.04 %IA/g
  Muscle uptake: 0.16 ± 0.03 %IA/g
  Pancreas uptake: 0.88 ± 0.01 %IA/g
  Spleen uptake: 0.22 ± 0.04 %IA/g
  Stomach uptake: 0.76 ± 0.03 %IA/g
  Urine + urinary bladder uptake: 0.56 ± 0.02 %IA/g
[3]; 30 min p.i., i.v.
  Tumor uptake: 0.95 ± 0.05 %IA/g
  Blood uptake: 1.02 ± 0.03 %IA/g
  Heart uptake: 1.10 ± 0.01 %IA/g
  Intestine uptake: 0.52 ± 0.05 %IA/g
  Kidney uptake: 3.12 ± 0.20 %IA/g
  Liver uptake: 0.85 ± 0.06 %IA/g
  Lung uptake: 0.84 ± 0.11 %IA/g
  Muscle uptake: 0.26 ± 0.02 %IA/g
  Pancreas uptake: 1.73 ± 0.10 %IA/g
  Spleen uptake: 0.18 ± 0.03 %IA/g
  Stomach uptake: 0.69 ± 0.05 %IA/g
  Urine + urinary bladder uptake: 1.92 ± 0.07 %IA/g
[3]; 60 min p.i.
  tumor/kidney ratio: 0.26
[3]; [4]
  Tumor uptake: 0.68 ± 0.20 %IA/g
  Blood uptake: 0.84 ± 0.01 %IA/g
  Heart uptake: 0.77 ± 0.11 %IA/g
  Intestine uptake: 0.36 ± 0.02 %IA/g
  Kidney uptake: 2.88 ± 0.12 %IA/g
  Liver uptake: 0.42 ± 0.04 %IA/g
  Lung uptake: 0.70 ± 0.05 %IA/g
  Muscle uptake: 0.17 ± 0.03 %IA/g
  Pancreas uptake: 0.90 ± 0.02 %IA/g
  Spleen uptake: 0.10 ± 0.03 %IA/g
  Stomach uptake: 0.45 ± 0.01 %IA/g
  Urine + urinary bladder uptake: 2.58 ± 0.18 %IA/g
[3]; 60 min p.i., i.v.
  Tumor uptake: 0.75 ± 0.04 %IA/g
  Blood uptake: 0.82 ± 0.01 %IA/g
  Heart uptake: 0.79 ± 0.12 %IA/g
  Intestine uptake: 0.31 ± 0.02 %IA/g
  Kidney uptake: 2.82 ± 0.16 %IA/g
  Liver uptake: 0.40 ± 0.05 %IA/g
  Lung uptake: 0.68 ± 0.03 %IA/g
  Muscle uptake: 0.18 ± 0.04 %IA/g
  Pancreas uptake: 1.14 ± 0.05 %IA/g
  Spleen uptake: 0.11 ± 0.02 %IA/g
  Stomach uptake: 0.46 ± 0.04 %IA/g
  Urine + urinary bladder uptake: 2.54 ± 0.22 %IA/g
[3]; 120 min p.i., i.v.
  Tumor uptake: 0.58 ± 0.01 %IA/g
  Blood uptake: 0.54 ± 0.01 %IA/g
  Heart uptake: 0.50 ± 0.01 %IA/g
  Intestine uptake: 0.22 ± 0.01 %IA/g
  Kidney uptake: 2.40 ± 0.12 %IA/g
  Liver uptake: 0.22 ± 0.02 %IA/g
  Lung uptake: 0.33 ± 0.02 %IA/g
  Muscle uptake: 0.11 ± 0.02 %IA/g
  Pancreas uptake: 0.95 ± 0.04 %IA/g
  Spleen uptake: 0.06 ± 0.11 %IA/g
  Stomach uptake: 0.12 ± 0.02 %IA/g
  Urine + urinary bladder uptake: 2.85 ± 0.03 %IA/g
